These sequences were tested on MS2 coat protein (assay: apparent KD of MS2 coat protein; higher = weaker reporter binding). Settings: Eterna round: R107; input ligand: arginine 13.2 mM.
Outline: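 Apparent KD stands for the median, per design, of fits to normalised cluster binding curves. The curves came from titrating on-chip-transcribed RNA switches on Illumina sequencing clusters with SNAP-549-labelled MS2 coat protein, twofold from 0.7 or 1.5 nM to 3 µM. Buffer was 100 mM Tris-HCl pH 7.5, 80 mM KCl, 4 mM MgCl2, without or with constant ligand.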
With “UUCUUUGACGAUCUGGGUUUACCAGAUCGACGAGGACCGGUACGGCCGCCACUCGUGUUUUCUUUACAUGAGGAUCACCCAUGUU [#16Tryptophan A Same State]” the “apparent KD of MS2 coat protein” value was 16.2 nM. With “ACAUGAGGAUCACCCAUGUGGCGAGUUGAUACCAGACCCGCACUAGUCCCUUGGCAGCAACUACGUGUGGGACACCCAUGUUAAG [qpqmullin]” the “apparent KD of MS2 coat protein” value was 35.1 nM. For “AAACAUGAGGAUCACCCAUGUUGAGGAUCACGAGGACCGGUACGGCCGCCACUCGACAUGAGGAUCACCCAUGUGAGGAUCACCC [Same State - Tryptophan A #1]”, the “apparent KD of MS2 coat protein” value was 52.5 nM. With “CGGUUUGUGAUGGAUACCAGCAGAGAGAAUGUUUAUCCUGACAUGAGGAUCACCCAUGUGUGCCCUUGGCAGCUGUUGUGGGCUG [8.Y]” the “apparent KD of MS2 coat protein” value was 42.4 nM.

Same assay, conditions: Eterna round: R107; input ligand: none
In the case of “UUAAUCUUGGAUGAAAACAUUUAAGCAGAAGGAGCGUGAUAAAACACAGGUAGGUCGCUGAAGGGAACAUGAGGAUCACCCAUGU [AstrosSSArgA#15]”, the “apparent KD of MS2 coat protein” value is reported as 38 nM. “GCCUAGCAGCGAAGGAGCGAGGUAACUUAAUAAAUAAAUACAAGAGGAUCACCCUUGUUUCCUCAGGUAGGUCGCGCUGCUAGGC [SSAB Alternative Aptamer #2 NP+V+V2]” was tested, and the “apparent KD of MS2 coat protein” value was 22.6 nM. For “GGUCUGUGGAGCGAUACCAGCUUGAGUGUACUGGCCAGGUACAUGAGGAUCACCCAUGUAAGCCCUUGGCAGCGCUCCAGAGACC [#1 Exclusion - Theophylline B Attempt #17 (HarryS)]”, the “apparent KD of MS2 coat protein” value was 9.29 nM. In the case of “UGAUGGUUCGGAAGGAGCGUGUAAGAACAAGAACAUGAGGAUCACCCAUGUAUUAAUUUAACACAGGUAGGUCGCCGAGUUAUUG [11.I]”, the “apparent KD of MS2 coat protein” value is reported as 15.9 nM. “UUGACAUGAGGAUCACCCAUGUAAACUGAAGGAGCGUCGAAAAUGACAGGUAGGUCGCAGAAUAAUAAUGGUGAUCGUAAAUAUU [#12 Exclusion - Arginine A]” was tested, and the “apparent KD of MS2 coat protein” value was 79 nM. For “CGAACAUGAGGAUCACCCAUGUUAACCGAAGGAGCGGCGCAUAAGUCAGGUAGGUCGCGGUAGAUGAAAUAGAGCAGUGGUGACA [#01 Same State - Arginine A]”, the “apparent KD of MS2 coat protein” value was 31.7 nM. With “UGUAUGGACUGAAGGAGCGGGUAAUAAACUUGAGGAUCACCCAGGUAAUAGGCGAAAGCCACCCAGGUAGGUCGCAGUCCAUACU” the “apparent KD of MS2 coat protein” value was 28.5 nM. “UUAGUAACGACGGCCGCCACUGAUUUUGGACAUGAGGAUCACCCAUGUAAAGAUCCUAGAAUGGUCAGGACCGGGUCUGAUAAUG [Exclusion Tryptophane B GF4]” was tested, and the “apparent KD of MS2 coat protein” value was 35.3 nM. In the case of “UUAAUGAUAUAUCAUAUGAUAUAUCCAGAAGGAGCGUCAUAAAUGGCAGGUAGGUCGCUGAAGGCAACAUGAGGAUCACCCAUGU [#16 Same State - Arginine A]”, the “apparent KD of MS2 coat protein” value is reported as 28.6 nM. With “AUACAUGAGGAUCACCCAUGUCAUUCAGAAGGAGCGUCAUUAUUGACAGGUAGGUCGCUGAUAAAAUUUUUAUACAUUAUGUUUA [JR_SSArginiA_Sub014]” the “apparent KD of MS2 coat protein” value was 16.3 nM. In the case of “UGUAUGGGAACAUGAGGAUCACCCAUGUGGCGAGGACCGGUACGGCCGCCACUCGAGCAGCAAGCGUGUAUGACGCUGCUGCAUG [ss-trypA-0mod]”, the “apparent KD of MS2 coat protein” value is reported as 312 nM. For “ACUAGAGGUGGAAGGAGCGGGAGACAUGAGGAUCACAUGAGGAUCACCCAUGUAGGAUCAUCCCAGGUAGGUCGCCAUGUCGAAA [,mmlmullin]”, the “apparent KD of MS2 coat protein” value was 979 nM. “GGAUAGGACGGAAGGAGCGACGUGAGGCUAAUGUCCAGUCUUCUACAUGAGGAUCACCCAUGUCAGGUAGGUCGCCGUCCUAUCG [#21 Exclusion - Arginine B]” was tested, and the “apparent KD of MS2 coat protein” value was 28.1 nM. For “GCCAUCGGCGGAAGCCGAUGGUAUACAGAAGGAGCGUAGGAAACUACAGGUAGGUCGCUGGACAUGAGGAUCACCCAUGUAAUAG [#27 Same State - Arginine A]”, the “apparent KD of MS2 coat protein” value was 15.2 nM. For “ACAUGAGGAUCACCCAUGUGGCGAGUUGAUACCAGACCCGCACUAGUCCCUUGGCAGCAACUACGUGUGGGACACCCAUGUUAAG [qpqmullin]”, the “apparent KD of MS2 coat protein” value was 57.6 nM.

Same assay, conditions: Eterna round: R107; input ligand: theophylline 20 uM
In the case of “UUAAUCUUGGAUGAAAACAUUUAAGCAGAAGGAGCGUGAUAAAACACAGGUAGGUCGCUGAAGGGAACAUGAGGAUCACCCAUGU [AstrosSSArgA#15]”, the “apparent KD of MS2 coat protein” value is reported as 28.8 nM. In the case of “UAAACUACACAUGAGGAUCACCCAUGUGGCCGAGGACCGGUACGGCCGCCACUCGUGUGUUAAUAAAAGAACUGCAAGGUUCUUC [Uslausce]”, the “apparent KD of MS2 coat protein” value is reported as 325 nM. In the case of “CGUAUUGGAAACAGUACGAGUGAUCCGGUCCGAGGACCGGUACGGCCGCCACUCGAAAAUAAAUAACAUGAGGAUCACCCAUGUA [Ex Tryptophan A 8]”, the “apparent KD of MS2 coat protein” value is reported as 21.6 nM. With “UCGGUUUUCUACAUGAGGAUCACCCAUGUCCGAGGACCGGUACGGCCGCCACUCGCAAUCAAACAGACGUGGGCCAAAUUUGCGU [Isinso]” the “apparent KD of MS2 coat protein” value was 14.8 nM. “GUUUACAUGAGGAUCACCCAUGUCGCCGGCCGAGGACCGGUACGGCCGCCACUCGUCCUAAUGGCACUUGACUUCCCUAUUAAGU [theeternabot_sameState_MS2_Trp_A_33]” was tested, and the “apparent KD of MS2 coat protein” value was 31.3 nM. “GGCCAUGGAAACAUGGCGGCGGCAUAUGCGCGAGGACCGGUACGGCCGCCACUCGGGCAACAUGAGGAUCACCCAUGUUCCUCAU [ETA NP+V+V2 #24 +-Same Structure]” was tested, and the “apparent KD of MS2 coat protein” value was 356 nM. With “GCCUAGCAGCGAAGGAGCGAGGUAACUUAAUAAAUAAAUACAAGAGGAUCACCCUUGUUUCCUCAGGUAGGUCGCGCUGCUAGGC [SSAB Alternative Aptamer #2 NP+V+V2]” the “apparent KD of MS2 coat protein” value was 25.6 nM. In the case of “ACGACGCAUACAGAUACCAGUAGAACAUGAGGAUCACCCAUGUCUGAGGCGCUCCGCCACUGCCCUUGGCAGCUGUAUGCGUCAG [SSTheo B #11]”, the “apparent KD of MS2 coat protein” value is reported as 12.6 nM. With “GGUCUGUGGAGCGAUACCAGCUUGAGUGUACUGGCCAGGUACAUGAGGAUCACCCAUGUAAGCCCUUGGCAGCGCUCCAGAGACC [#1 Exclusion - Theophylline B Attempt #17 (HarryS)]” the “apparent KD of MS2 coat protein” value was 13.8 nM. In the case of “GGGUGCGGGAUAGAUACCAGUGCCUUAAAAUAGGCACAUGAGGAUCACCCAUGUACCGGGCGCCCUUGGCAGCUAGUACCAUCCA [Edanrele]”, the “apparent KD of MS2 coat protein” value is reported as 190 nM. In the case of “UGAUGGUUCGGAAGGAGCGUGUAAGAACAAGAACAUGAGGAUCACCCAUGUAUUAAUUUAACACAGGUAGGUCGCCGAGUUAUUG [11.I]”, the “apparent KD of MS2 coat protein” value is reported as 22.1 nM. “ACUCGGUGUUUGUUGCUCCGAGUGUAUGAUACCAGUUAGUUUUAUGGCCCUUGGCAGCAUAGGACAUGAGGAUCACCCAUGUGUU [#02 SameState-TheophyllineA]” was tested, and the “apparent KD of MS2 coat protein” value was 41.1 nM. In the case of “CGAUGAUCGAGGGAUACCAGAAAUGGUAUUCCUUUAUUUCUUACAUGAGGAUCACCCAUGUUCCCUUGGCAGCUUUUGAUCAUCG [ETHB #7]”, the “apparent KD of MS2 coat protein” value is reported as 86.1 nM. For “CUCUGGUGCUGAGUGAGUGUCGUGACUGAUACCAGAUGCCUUUACAUCCCUUGGCAGCAGUACAUGAGGAUCACCCAUGUAUUCC [Rireusrama]”, the “apparent KD of MS2 coat protein” value was 33.5 nM. For “ACGUUGUAGUCGGCCGCCACUGUUUUCAUGUUCAACAUGAGGAUCACCCAUGUACCUUUUUUUAUCAGGACCGGGACGUAUUCGA [JR_SSTryptoB_Sub003]”, the “apparent KD of MS2 coat protein” value was 102 nM.

From the supplement of paper PMC9170038
